The results in this text go back to the nanobody polyreactivity screen of Harvey et al. (2022).

The series can be described thus: yeast display, Sf9 membrane polyspecificity reagent, FACS + sequencing; frameworks hold sequencing errors. Summed up: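 Galactose induction of a Saccharomyces cerevisiae BJ5465 synthetic nanobody display library ran 36–48 hours. The cells were then stained for 1 hour at 4 °C with 10% biotinylated, detergent-solubilized Sf9 membrane reagent, pulled down on streptavidin microbeads and FACS-sorted into low and high (top ~1%) gates on expression and reagent-binding fluorescence. Labels for polyreactivity follow the gate of origin.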
As to “HVQLVESGGGLVQAGGSLRLSCAASGRIFPGNVMGWYRHAPGKERELVAGIDSSGGSTSYADSVKGRFTISRDNAKNSVYLQMNSLKPEDTAVYYCAKVRDQARYQWGYQEFDYWGEGTQVTVSS”, the “polyreactivity (PSR sort gate)” value was “low polyreactivity”.
Regarding “HVQLVESGGGLVQAGGSLRLSCAASGRIFTLYDMGWYRQAPGKERELVAAISNSAGSTYYADSVKGRFTISRDNAKNTVYLQMNSLKPEDTAVYYCAAELWSWGGARDYWGQGTQVTVSS”, the “polyreactivity (PSR sort gate)” value is listed as “high polyreactivity”.
As for “HVQLVESGGGLVQAGGSLRLSCAASGRTFARYAMGWYRQAPGKERELVAAITRGGRTNYADSVKGRFTSSRDNAKNTVYLQMNSLKPEDTAVYYCNAYFVNPYDYWGQGTQVTVSS”, the entry is “high polyreactivity”; as for “HVQLVESGGGLVQAGGSLRLSCAASGRTFGAYTMGWYRQAPGKERELVAAINWSGGDTYYAYSVKGRFTISRDNAKNTVYLQMNSQKPEDTAVYYCNAEPRYGTYDYWGQGTQVTVSS”, “low polyreactivity”; as for “HVQLVESGGGLVQAGGSLRLSCAASGRTFTYNTMGVYRKEPGKERELVAAISSSGGSTYYADSVKGRFTISRDNAKNTVYLQMNSLKPEDTAVYYCAKRYFSSSRYYYWGQGTQVTVSS”, “high polyreactivity”.
Consider “HVQLVESGGGLVQAGGSLRLSCAASGRTFYIYAMGWYRKAPGKERELVAAITWSGGTTYYADSVKGRFTISRDNAKNPVYLQMTSLKPEDTAVYYCAADSYGFYLESYYWGQGTQVTVSS”, for which the “polyreactivity (PSR sort gate)” value is given as “low polyreactivity”.
Under “HVQLVESGGGLVQAGGSLRLSCAASGRTLYRNAMGWYRQAPGKERELVARITWSGASTYYADYVKGRFTISRDNAKNTVYLQMNSLKPEVTAVYYCAAQYLSRRYGPYYTYNYWGLGTQVTVSS” stands “high polyreactivity”; under “HVQLVESGGGLVQAGGSLRLSCAASGSIFDYNAIGWYRQAPGKERELVASSSGDSGSTYYADSVKWRFTISRDYAKNTVYLQMNSLKPEDTAVYYCAAPYVSWDYRYYYWGQGTQVTVSS”, “low polyreactivity”.
Under “HVQLVESGGGLVQAGGSLRLSCAASGSIFESNAMGWYRQAPGKERELVAAYADSVKGRFTISRDNAKNTVYVQMNSLKPEETAVYYCAARIGTGVLPGRGANSHMDYWGQGTQVTVSS” stands “low polyreactivity”.
As for “HVQLVESGGGLVQAGGSLRLSCAASGSIFYYNVMGWYRQAPGKERELVAAIDIDGSTYYADSVKGRFTISRDNAKNTVYLQMNSMKPEDTAVYYCNAQAPYWFSFYYDHKYDYWGQGTQVTVSS”, the entry is “low polyreactivity”.
As for “HVQLVESGGGLVQAGGSLRLSCAASGSNFDKYAMGGYRQAPGKERELGAAISRGGSSTYYADSVKGRFTISRDNAKNTVYLQMNSLKPEDTAVYYCAARIRNWPAMDYWGQGTQVTVSS”, the “polyreactivity (PSR sort gate)” value is listed as “high polyreactivity”.
With “HVQLVESGGGLVQAGGSLRLSCAASGSTFGYNARGWYRQAPGKERELVAVITDSGGSTKYADSVKGRFTISRDNAKKTVYLQMNSLKPEDTAVYYCAKRSSQTRRAYDYWGQGTQVTVSS”, the “polyreactivity (PSR sort gate)” value is “low polyreactivity”.
As for “HVQLVESGGGLVQAGGSLRLSCAASGSTFILNTMGWYIQAPGKERKLVAAITRRGSSTYYADSVKGRFTISRDNAKNTGYLQMNSLKPEDTAVYFCAAFSYNLGMDYWGQGTKVTVSS”, the “polyreactivity (PSR sort gate)” value was “high polyreactivity”.
As to “HVQLVESGGGLVQAGGSLRLSCAASGSTFTYYAMGWYRQAPGKERELVAAITGSDGRTYYADSVKGRFTISRDNAKKTVYLEMNSLKPEDTAVYYCATDVPIREIDEFGYWGQGTQVTVSS”, the “polyreactivity (PSR sort gate)” value was “low polyreactivity”.
Consider “HVQLVESGGGLVQAGGSLRLSCAASGSTFYRNAMGWYREAPGKEWEFVADITLGGGSTYYADSVKGRFTISRDNAKNTVYLQMNSLKPEDTAVYYCAVDYWQLNYDYWGQGTQVTVSS”, for which the “polyreactivity (PSR sort gate)” value is given as “low polyreactivity”.
Under “HVQLVESGGGLVQAGGSLRLSCAASRRTFGWYAMGWYRQAPGKERELVAAISLSGGSTYYADSVKGRFTISRDNAKNTVYLQRNSLKPDVTAVYDCAAADYWLGYDYWGQGSQVTVSS” stands “low polyreactivity”.
As for “HVQLVESGGGLVQAGGSLRLSCAASVFILSPNTMGWYRQAPGKERELVAAISSDVSTYADSVKGRFTISRDNAKNTVYLQMNSLKPEDTAVYYCNADDFGYASYEYWGQGTQVTVSS”, the “polyreactivity (PSR sort gate)” value was “low polyreactivity”.
For “HVQLVESGGGLVQEGGSLRLSCAASGSILALYAMGWDRQAPGKERELVAAISSGDSTSYADSVKGRFTISRDNAKNTVYLQMNSLKPEDTAVYYCAADRPIYPYPGKGFRYDYWGQGTQVTVSS”, the “polyreactivity (PSR sort gate)” value is on record as “low polyreactivity”.
As to “HVQLVESGVGLVQAGGSLRLSCEASGFIFIRYAMGWYRQAPGQERELVASISSGGSTYYADSVKGRFTISRDNAKNTVYFQMNSLKPEDTAVFYCAAVFSKGLEGDYWGQGTEVTVSS”, the “polyreactivity (PSR sort gate)” value is listed as “high polyreactivity”.
For the sequence “HVQQQESGGGLEQAGGSLRLSCAASGNISYSRNMGWYRQAPGKERELVAAIDRGAITYYADSVKGRFTISRDNAKNTVYLQIYSLKPEDTAVYYCAAVYHDRWDHRYWGQGTQVTVSR”, the “polyreactivity (PSR sort gate)” value was “high polyreactivity”.
As for “HVQQQESGGGLVQAGGSLRLSCAASGYISVFIGMGWYRQSPGKERELVASIAYGAITYYTDSVKGRFTMSRDYAKNTEYLQMNSLKPEDTAVYYCATRRYYRYYNFWYYYWGQGTQVTVSS”, the entry is “high polyreactivity”; as for “HVRLQESGGGLVQAGGSLRQSCAACGAISPYYDMGWYRLAPGKEREFVASIAHGGTTYYADSVKGRFTTSRDNAKNTVYLQMKSMKTEDTAVYYCAVDYDVWHSHIYRGQGTQVTVSS”, “high polyreactivity”.
Consider “IIQAGGSLRLSCAASGRTFSGYARGWYRQAPGKERELIADITSGGSTYYADSVKGRFTISRDNAKNTVYLQMNSLKPEDTAVYYCSRDDRLAGDYWGQGTQVTVSS”, for which the “polyreactivity (PSR sort gate)” value is “low polyreactivity”.
“KDQLVESGGGLVQAGGSLRLSSAASGIRFYVHSMGWYRQAPGKERELDASITSSGGSTYYADSVKGRFTISRDKATNSVYLQMNSLKPEDTAVYYCNKERWPVTYREYDYWGQGTQVTVSS”: the “polyreactivity (PSR sort gate)” value is recorded as “low polyreactivity”.
“KVHLVESGGGLVQAGGSLRLSCAASGRIFRYYAMGWYRHAPGKERELVAAIRYLGASTYYADSVKGRFTISRDNAKNTVYLQMNSLKPEDTAVYYCNRTPRSKGNYWGQGTLVTVSS”: the “polyreactivity (PSR sort gate)” value is recorded as “high polyreactivity”.
Under “KVQLVESGAGLVQAGGSLRLSCAASVSNFTSHAMGWSRQAPGKEREFVAAISVGGGITYYADSVKGRFTISRDHEKNTVYLQMNSLNPEDTAVYYCDADGEYPHSDDFEYWGQVTQVTVSS” stands “low polyreactivity”; under “KVQLVESGGGLDQAGGSLRLSCAASGIIFAYNVMGRYRQAPGKERELVAAIRWGGGSTYADSVKGRFSISRDNAKNTVYLQMTRLKPEDTAVYYCNVERWWWSRTYCVKYDYWGQGTQVNVSS”, “high polyreactivity”.
For the sequence “KVQLVESGGGLVQAGGRLRLSCAASGFIFVPYPMGWYRQAPGKERELVATITGRGDSTYYADSVKGRFTISRDNAMNTVYLQMNSLKTDDTAVYYCAVDPIRLWAYDYWGQGTQVNVSS”, the “polyreactivity (PSR sort gate)” value is recorded as “low polyreactivity”.
Under “KVQLVESGGGLVQAGGSHRLSSAASGSTFDGYVMGLYRPAPGKERELVDAISSTGTRTYYADSVKGRFTISRDNATNTFYLQINSMKPEDTAVYYCAAEIDYRYRTVSYYYWGQGSQVTVSS” stands “low polyreactivity”; under “KVQLVESGGGLVQAGGSLLLSCAASGRTFTYNAIGWYRQARGTERELVAVITNSGGSTYYADSVKGRYTISRDNAKNTVYLQRNRLKPEDTAVYYCAADYFSRYWYRFYYWGQGTQVTVSS”, “high polyreactivity”.
In the case of “KVQLVESGGGLVQAGGSLRLSCAASGFTLGYYAMGWYRQEPGKEREMVAAITSGGGTNYADSVKGRFTISRDNAKNTVYLQMNSLKPEDSAVYYCAARARWIYGMYSWGQGTQVTLSS”, the “polyreactivity (PSR sort gate)” value is recorded as “low polyreactivity”.
As for “KVQLVESGGGLVQAGGSLRLSCAASGRIFGRNAMGGYRQAPGKERELVAAINVSSGGTYYADSVKGRFTISRDNAKNTVYLQMNSLKPEDTAVYFCAARARWAGLRYTRYYYWGQGTQVTVSS”, the entry is “high polyreactivity”.
In the case of “KVQLVESGGGLVQAGGSLRLSCAASGRILVYNVMGWYRQAPGKEMEFVAAITSRDTSTYYADSVKGRFTISRDNAKNPVYLQMNSLKPEDTAVYYCAVRVGARVRYYSWGQGTQVTVSS”, the “polyreactivity (PSR sort gate)” value is “high polyreactivity”.
As for “KVQLVESGGGLVQAGGSLRLSCAASGRTFPYYVMGWYRQAHGKERELVAAIDVGGGSTYYADSVKGRFTISRDNAKNTVYLQMNSLKPEVTAVYYCAAQVDYLAHYGYWGQGTQVTVSS”, the entry is “low polyreactivity”; as for “KVQLVESGGGLVQAGGSLRLSCAASGYIFSYYAMGWYRQAPGKERELVAAITASGGRTYYADSVKGRFTISRDNAKNTVYLQMNSQKPEDTAVYYCARASGIILQGQLVRWYRYNYLGQGTQVTVSS”, “high polyreactivity”; as for “KVQLVESGGGLVQAGGSLRLSCAHSGYIFGYYAMGCYRQAPGKERELVAAISSGGNTNYADSVKGRYTISRDNAKTTVYLQMNSLKPEDTAVNYCATRDRYKRIRYDYWGQGTQVTVSS”, “high polyreactivity”.
As for “KVQLVESGGGLVQAGGSLRLSCPASGFTFKSYTMAWSSQAPGKERELVAAISRRDGSTYYADSVKGRFPISRDNAKNTVYFQMNSLKPEDTAVYYCNAYTYGSEFDYWGQGTQVTVST”, the “polyreactivity (PSR sort gate)” value is “high polyreactivity”.
Under “KVQLVESGGGLVQARGSLRLSCAASGRIIRYYVMGWYRQAPGKERELVASISWRGTSTYYADSVKGRFTISRDNAKNTVYLQMNSLKPEDTAVYYCNAARPGKNYDSWGQGTQVTVSS” stands “high polyreactivity”; under “KVQLVESGGRVVQAGGSLRLSCAASGSIFGYNDMGWYRPAPGKERELVATITWGGGRTRYADSVKGRFTISRDNAKKTVYLQMNSLKPEETAVYYCARDRGKITPYDYWGQGTQVTVSS”, “low polyreactivity”.
Under “KVQLVESGSGLVQAGGSHSISCAASGGTIACYVMGWYRPAPGKEREFVATISWSGTSTYYADSVKGRFTISRDNAKNTVDLLMYSLKPEDTAVFYCNKPGSSWPDFYSYNYWGLGTQVTVSS” stands “low polyreactivity”.
Regarding “LGQLQESGGGLVQAGGSLRLSCAASGDIFDADIMGWYREAPGKEREHVASITDGGSTNYADSVKGRFTISRDNAKNTVYLPMNSLKPENTAVLYCAAIAYPDLPTYFDYDSDYFDWGQGTQVTVSS”, the “polyreactivity (PSR sort gate)” value is recorded as “low polyreactivity”.
